Test results published in patent publication US20030175822A1.

Legend:
[1] = molecular target: mu3 opiate receptor (human) (UniProt P35372); experiment: displacement of [3H]-dihydromorphine, membrane suspension of normal human lung
[2] = molecular target: mu3 opiate receptor (human) (UniProt P35372); experiment: displacement of [3H]-dihydromorphine, membrane suspension of human granulocytes
[3] = molecular target: mu3 opiate receptor (human) (UniProt P35372); experiment: displacement of [3H]-dihydromorphine, membrane suspension of human lung non-small cell carcinoma

Measured: IC50

mu3 opiate receptor (human), sequence (P35372 whole entry): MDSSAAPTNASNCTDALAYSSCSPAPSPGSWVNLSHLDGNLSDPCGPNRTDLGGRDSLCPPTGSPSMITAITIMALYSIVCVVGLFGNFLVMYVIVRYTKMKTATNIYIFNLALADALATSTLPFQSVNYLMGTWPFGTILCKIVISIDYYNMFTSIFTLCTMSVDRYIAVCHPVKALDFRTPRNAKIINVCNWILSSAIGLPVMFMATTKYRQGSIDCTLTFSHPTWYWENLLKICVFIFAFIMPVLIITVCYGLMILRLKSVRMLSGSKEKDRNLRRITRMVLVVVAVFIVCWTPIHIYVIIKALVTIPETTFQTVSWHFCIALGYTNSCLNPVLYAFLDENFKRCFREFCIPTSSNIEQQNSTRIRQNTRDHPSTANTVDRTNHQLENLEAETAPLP

(D-Ala^2, Leu^5)-enkephalin (from UniProt P01210 230-234) (peptide)
> 1000 nM: all assays above

(D-Pen^2, D-Pen^5)-enkephalin (peptide)
> 1000 nM: all assays above

Deltorphin (peptide)
> 1000 nM: all assays above

Dynorphin 1-17 (from UniProt P01213 207-223) (peptide)
> 1000 nM: all assays above
